Data as given in IntAct's records for PubMed 22927794.

B1: Long arms of the bivalent protein 1 (Caenorhabditis elegans), Q17604 (parent)
chain: MVSHKKNDRPRPLWILKIHKRLSLFEFKRYATGIGKDDGQDISWVLKGNAKNNVYQVTVETMENCETDECKKVIWVPDELAESTGTMFEDFKEDQPQESVSSISNNEANWGSSVNELDENYEKMQKEETFDPYDSDSDTSEDSDFDEDFEDSDKTMCSGQS

Variants of: B1
Settings: with glc7b_caeel gsp-2, P48727
Sequence of glc7b_caeel gsp-2, P48727 (P48727 whole entry): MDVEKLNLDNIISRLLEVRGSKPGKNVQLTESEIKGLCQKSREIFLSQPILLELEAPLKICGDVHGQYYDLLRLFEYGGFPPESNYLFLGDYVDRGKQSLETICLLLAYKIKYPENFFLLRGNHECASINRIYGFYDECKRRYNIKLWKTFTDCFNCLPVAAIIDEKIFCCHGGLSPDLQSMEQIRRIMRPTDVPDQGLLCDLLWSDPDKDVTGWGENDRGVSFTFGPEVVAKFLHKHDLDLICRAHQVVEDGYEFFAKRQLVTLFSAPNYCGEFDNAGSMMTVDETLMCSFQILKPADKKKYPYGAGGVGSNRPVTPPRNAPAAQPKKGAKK

Question: Which “effect of a mutation on the interaction” value does the source give for MVSHKKNDRPRPLWILKIHKRLSLFEFKRYATGIGKDDGQDISWVLKGNAKNNVYQVTVETMENCETDECKKAIAVPDELAESTGTMFEDFKEDQPQESVSSISNNEANWGSSVNELDENYEKMQKEETFDPYDSDSDTSEDSDFDEDFEDSDKTMCSGQS [V73A;W75A] here?
Answer: Its value is “increasing interaction strength”.

Variants of: B1
Settings: with glc7a_caeel gsp-1, Q27497
Sequence of glc7a_caeel gsp-1, Q27497 (Q27497 whole entry): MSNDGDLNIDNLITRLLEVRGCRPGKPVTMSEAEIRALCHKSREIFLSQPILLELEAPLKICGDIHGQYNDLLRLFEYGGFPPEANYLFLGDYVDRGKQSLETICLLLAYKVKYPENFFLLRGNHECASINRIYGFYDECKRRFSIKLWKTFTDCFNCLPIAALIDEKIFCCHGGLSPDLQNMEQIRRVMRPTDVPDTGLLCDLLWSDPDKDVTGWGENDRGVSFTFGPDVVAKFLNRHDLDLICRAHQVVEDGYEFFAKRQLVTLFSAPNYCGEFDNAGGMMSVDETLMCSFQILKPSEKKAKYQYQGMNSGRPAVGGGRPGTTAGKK

Question: Which “effect of a mutation on the interaction” value does the source give for MVSHKKNDRPRPLWILKIHKRLSLFEFKRYATGIGKDDGQDISWVLKGNAKNNVYQVTVETMENCETDECKKAIAVPDELAESTGTMFEDFKEDQPQESVSSISNNEANWGSSVNELDENYEKMQKEETFDPYDSDSDTSEDSDFDEDFEDSDKTMCSGQS [V73A;W75A] here?
Answer: The value was “decreasing interaction strength”.
